One data set concerns the target c-Myc/Max heterodimer (Homo sapiens, UniProt P01106-1;P61244 P01106-1:1-439,P61244:1-160). In words: EMSA; complex formed with purified proteins; inhibited dose-dependently by compound 63. As to conditions: tags: c-Myc full-length, His6 removed by thrombin (assay 1) or His6-c-Myc (reciprocal assay), label: 5' biotin-triethyleneglycol, self-complementary.
The target of a further data set is Max/Max homodimer (Homo sapiens, UniProt P61244 P61244:1-160). In words: EMSA; Max/Max/Ebox complex; disrupted by compound 101, not 79. Particulars: tags: His6-Max; chain copies: 2 (stated); label: 5' biotin-triethyleneglycol; self-complementary.
Sequence of Max/Max homodimer (P61244 whole entry, one chain of several): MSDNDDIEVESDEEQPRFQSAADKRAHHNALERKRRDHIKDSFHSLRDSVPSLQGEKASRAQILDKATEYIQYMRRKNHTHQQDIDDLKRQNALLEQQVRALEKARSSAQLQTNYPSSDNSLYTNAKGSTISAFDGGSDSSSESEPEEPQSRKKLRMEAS

Sequence of c-Myc/Max heterodimer (P01106 16-454, chain 1 of 2): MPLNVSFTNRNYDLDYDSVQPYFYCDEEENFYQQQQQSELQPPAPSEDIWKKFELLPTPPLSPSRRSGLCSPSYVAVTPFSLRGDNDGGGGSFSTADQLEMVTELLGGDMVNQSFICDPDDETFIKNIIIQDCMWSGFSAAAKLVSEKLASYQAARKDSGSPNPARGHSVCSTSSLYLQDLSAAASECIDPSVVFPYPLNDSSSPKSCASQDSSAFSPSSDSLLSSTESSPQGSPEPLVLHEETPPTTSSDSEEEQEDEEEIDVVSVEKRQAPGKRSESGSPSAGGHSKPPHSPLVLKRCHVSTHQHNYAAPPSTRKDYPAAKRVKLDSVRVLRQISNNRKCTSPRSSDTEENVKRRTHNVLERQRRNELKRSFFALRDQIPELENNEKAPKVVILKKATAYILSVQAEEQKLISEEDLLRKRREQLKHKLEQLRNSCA
Sequence of c-Myc/Max heterodimer (P61244 whole entry, chain 2 of 2): as the sequence (P61244 whole entry, one chain of several) above

B1: Ebox DNA (dsDNA)
DNA 1: GGAAGCAGACCACGTGGTCTGCTTCC
DNA 2: GGAAGCAGACCACGTGGTCTGCTTCC
Take B1: the binding result with c-Myc/Max heterodimer and with Max/Max homodimer was “binds” throughout.

(Values after patent US20150291521, “PYRROL-1-YL BENZOIC ACID DERIVATIVES USEFUL AS MYC INHIBITORS” (DANA-FARBER CANCER INSTITUTE, INC., published 2015).)
